Assay results reported in paper PMC8786652 (Cell reports, 2022).

Assays:
[1] = target: SARS-CoV-2 Spike on CEM.NKr-Spike cells (SARS-CoV-2, Wuhan-Hu-1 (assumed for the …, UniProt P0DTC2)); assay: flow cytometry on cells
[2] = target: SARS-CoV-2 Spike WT (Wuhan-Hu-1 reference strain) (SARS-CoV-2, Wuhan-Hu-1, UniProt P0DTC2); assay: flow cytometry on cells
[3] = target: SARS-CoV-2 S1 domain C-His tag protein, from HEK293 cells (SARS-CoV-2, Wuhan-Hu-1 (strain not …, UniProt P0DTC2)); assay: SPR

B1: CV3-13 (hIgG1) (antibody, V domains shown)
VH: QVQLQQSGPGLVKPSQTLSLTCTVAGGSISSGTYYWSWIRQPAGKGLEWIGRIYTSGSANYNPSLKSRVTISVDTSKNQFSLRLSSVTAEDTAVYYCAREYSSSYYYFYYMDVWGKGTTVTVSS
VL: AIRMTQSPSSLSASVGDRVTITCQASQDISNYLNWYQQKPGKAPKLLIYVASNLETGVPSRFSGSGFGTDFTFTISSLQPEDIATYYCQQFDNLPYTFGQGTKLEIK
[1]
  binding result: binds
[2]
  binding result: binds
[3]
  binding result: binds

B2: CV3-13 LALA (hIgG1) (antibody, V domains shown)
VH: B1 VH
VL: B1 VL
[1]
  binding result: binds
[2]
  binding result: binds

B3: CV3-13 […] (hIgG1) (antibody, V domains shown)
VH: B1 VH
VL: B1 VL
[1]
  binding result: binds
[2]
  binding result: binds
